Source: US10334848B2, “Methods and compositions for weed control using EPSPS polynucleotides” (Monsanto Technology LLC, priority 2014, dated 2019)

B1: SEQ ID NO 5/6: dsRNA trigger: 53mer EPSPS Trigger (SEQ ID NO 5) and Reverse Complement (SEQ ID NO 6), positions 1189-1241 of Amaranthus palmeri EPSPS cDNA (nucleic acid)
sense: GACGUCAACAUGAACAAAAUGCCAGAUGUUGCUAUGACUCUUGCAGUUGUUGC
antisense: GCAACAACUGCAAGAGUCAUAGCAACAUCUGGCAUUUUGUUCAUGUUGACGUC
modifications: double-stranded RNA trigger, further chemistry not given here
B2: SEQ ID NO 3/4: dsRNA trigger: 50mer EPSPS Trigger (SEQ ID NO 3) and Reverse Complement (SEQ ID NO 4), positions 398-447 of Amaranthus palmeri EPSPS cDNA (nucleic acid)
sense: GAACUCUUGGUUUAAAAGUGGAGGAUGAUAGUACAGCCAAAAGGGCAGUC
antisense: GACUGCCCUUUUGGCUGUACUAUCAUCCUCCACUUUUAAACCAAGAGUUC
modifications: double-stranded RNA trigger, further chemistry not given here

Experiments:
[1] = system: glyphosate-resistant Amaranthus palmeri plants (“R-22”); details: stated as known; cited from earlier work
[2] = system: glyphosate-resistant Waterhemp plants (“WH13”); details: stated as known; cited from earlier work
[3] = system: glyphosate-resistant Waterhemp (Amaranthus rudis); test: Sensitization of glyphosate-resistant Waterhemp to glyphosate by topical dsRNA trigger (Example 3); assay type: in vivo; details: 8 nmol trigger; glyphosate 1.5 lb/ac one day after; 14 DAT; compared to plants treated with glyphosate alone
Description: The efficacies of mid-sized polynucleotide trigger molecules comprising SEQ ID NOs: 3 and 4 or SEQ ID NOs: 5 and 6, were assessed in glyphosate-resistant Waterhemp (Amaranthus rudis) in relation to a 24-mer trigger comprising SEQ ID NOs: 7 and 8. dsRNA triggers comprising polynucleotide sequences of SEQ ID NOs: 3 and 4, SEQ ID NOs: 5 and 6, and SEQ ID NOs: 7 and 8 were produced and the triggers were each formulated with 0.5% SILWET® L-77, 2% AMS, and 20 mM phosphate buffer to a concentration of 8 nmol. The trigger formulations were then topically applied to the leaves of glyphosate-resistant Waterhemp. Control plants were either untreated or treated with a solution of 0.5% SILWET® L-77, 2% AMS, and 20 mM phosphate buffer. One day after treatment with the trigger formulation, WEATHERMAX® brand glyphosate herbicide was applied to the plants at 1.5 lb/ac. Four replications were performed per treatment. The fresh weight of the plants was determined 14 DAT with EPSPS trigger polynucleotides and the fresh weight % compared to control plants (treated with WEATHERMAX® brand glyphosate herbicide alone) was calculated.

[4] = system: glyphosate-resistant Amaranthus palmeri plants (“R-22”); test: Sensitization of glyphosate-resistant Palmer amaranth to glyphosate by topical dsRNA trigger, then WEATHERMAX glyphosate; assay type: in vivo; details: glyphosate 1.5 lb/ac one day after, four replications
Description: Double stranded RNA (dsRNA) triggers comprising polynucleotide sequences of SEQ ID NOs: 3 and 4, SEQ ID NOs: 5 and 6, and SEQ ID NOs: 7 and 8 were produced and the triggers were formulated with 0.5% SILWET® L-77, 2% AMS, and 20 mM phosphate buffer to the desired concentration. The trigger formulations were then topically applied to the leaves of glyphosate-resistant Amaranthus palmeri plants (“R-22”). Control plants were either untreated or treated with the 0.5% SILWET® L-77, 2% AMS, and 20 mM phosphate buffer solution. One day after treatment, WEATHERMAX® brand glyphosate herbicide (RU Wmax, Monsanto, St Louis, Mo.) was applied to the plants at 1.5 lb/ac. 11 days after treatment (DAT) with EPSPS trigger polynucleotides the percent growth reduction of the dsRNA treated plants was assessed relative to untreated control plants by visual score. At 14 DAT the fresh weight of the dsRNA treated and control plants were determined. Four replications were performed per treatment. […] See also FIG. 1.

[5] = system: glyphosate-resistant Waterhemp plants (“WH13”); test: Tiling of EPSPS cDNA: dsRNA trigger testing with glyphosate, fresh weight (Example 7, FIG. 4); assay type: in vivo; details: 8 nmol trigger, glyphosate 1.5 lb/ac one day after, 14 days after treatment, three replications
Description: The EPSPS cDNA of SEQ ID NO: 1 was tiled across the entire length of the cDNA to identify target sequences for bioactive trigger polynucleotides covering as shown in Table 5. The target nucleotide sequence were chosen to be approximately 47-62 bp in length. Bioactive trigger polynucleotides comprising a nucleotide sequence having at least 85% identity or complementarity to SEQ ID NOs: 36-66 were tested for the ability to sensitize glyphosate-resistant Waterhemp to glyphosate.
Double stranded RNA (dsRNA) triggers comprising polynucleotide sequences corresponding to SEQ ID NOs: 36-62 were produced and the bioactive trigger polynucleotides were formulated with 0.5% SILWET® L-77, 2% AMS, and 20 mM phosphate buffer to a final concentration of 8 nmol. The trigger formulations were then topically applied to the leaves of glyphosate-resistant Waterhemp plants (“WH13”). Control plants were either untreated or treated with the formulation 0.5% SILWET® L-77, 2% AMS, and 20 mM phosphate “buffer” solution. Additionally dsRNA comprising SEQ ID NOs: 7 and 8 (24-mer EPSPS trigger) was applied as a control. One day after treatment, WEATHERMAX® brand glyphosate herbicide (RU Wmax, Monsanto, St Louis, Mo.) was applied to the plants at 1.5 lb/ac.
Three replications were performed per treatment.

[6] = system: glyphosate-resistant Waterhemp plants (“WH13”); test: Sensitization of glyphosate-resistant Waterhemp WH13 to glyphosate, 2-16 nmol trigger (Example 5, FIG. 3); assay type: in vivo; details: 2, 4, 8 or 16 nmol trigger, glyphosate 1.5 lb/ac one day after, plants at 14 days after treatment
Description: The efficacies of mid-sized bioactive polynucleotide trigger molecules
Double stranded RNA (dsRNA) triggers comprising polynucleotide sequences of SEQ ID NOs: 3 and 4, SEQ ID NOs: 5 and 6, and SEQ ID NOs: 7 and 8 were produced and the bioactive trigger polynucleotides were formulated with 0.5% SILWET® L-77, 2% AMS, and 20 mM phosphate buffer to a concentration of 2 nmol, 4 nmol, 8 nmol or 16 nmol. The trigger formulations were then topically applied to the leaves of glyphosate-resistant Waterhemp plants (“WH13”). Control plants were either untreated or treated with the 0.5% SILWET® L-77, 2% AMS, and 20 mM phosphate buffer solution. One day after treatment, WEATHERMAX® brand glyphosate herbicide (RU Wmax, Monsanto, St Louis, Mo.) was applied to the plants at 1.5 lb/ac. Four replications were performed per treatment.

EPSPS mRNA = EPSPS mRNA reduction in Palmer protoplasts; assay type: cell-based; details: 6 ug dose of dsRNA trigger; Amaranthus palmeri protoplasts; FIG. 2
Description: The activities of mid-sized bioactive polynucleotide trigger molecules corresponding to SEQ ID NOs: 3 and 4 or SEQ ID NOs: 5 and 6 were assessed in Amaranthus palmeri protoplasts. A 6 ug dose of each dsRNA trigger (SEQ ID NO 3/4 or SEQ ID NO 5/6) was added to Amaranthus palmeri protoplasts.

Molecule	sensitization of glyphosate-resistant Palmer amaranth to glyphosate, prior knowledge (in words) [1]	sensitization of glyphosate-resistant Waterhemp to glyphosate, prior knowledge (in words) [2]	% Control Fresh wt. average [3] [%]	visual 11-DAT Average (percent growth reduction relative to untreated control plants by visual score) ([4]; 2 nmole trigger) [%]	Fresh weight 14-DAT Average ([4]; 2 nmole trigger)	visual 11-DAT Average (percent growth reduction relative to untreated control plants by visual score) ([4]; 4 nmole trigger) [%]	Fresh weight 14-DAT Average ([4]; 4 nmole trigger)	visual 11-DAT Average (percent growth reduction relative to untreated control plants by visual score) ([4]; 8 nmole trigger) [%]	Fresh weight 14-DAT Average ([4]; 8 nmole trigger)	visual 11-DAT Average (percent growth reduction relative to untreated control plants by visual score) ([4]; 16 nmole trigger) [%]	Fresh weight 14-DAT Average ([4]; 16 nmole trigger)	efficacy in sensitizing glyphosate-resistant Waterhemp to glyphosate (in words, from fresh weight) [5]	sensitization of glyphosate-resistant Waterhemp plants to glyphosate (in words) [6]	EPSPS mRNA reduction vs. control (EPSPS mRNA) [%]
SEQ ID NO 7/8: dsRNA 24mer EPSPS Trigger (SEQ ID NO 7) and Reverse Complement (SEQ ID NO 8), known to sensitize glyphosate-resistant weeds; control (sense AUGCCAGAUGUUGCUAUGACUCUU; antisense AAGAGUCAUAGCAACAUCUGGCAU; listed as RNA, chemistry not given here) [reference compound]	known to sensitize glyphosate-resistant Palmer amaranth to glyphosate	known to sensitize glyphosate-resistant Waterhemp to glyphosate	85	47.5	19.0	88.8	95.3	90.0	91.8	85.8	93.7			
B1			83	48.8	18.2	41.3	94.0	93.8	96.2	81.3	90.7	good efficacy	sensitize glyphosate-resistant Waterhemp plants to glyphosate	84
B2			78	46.3	24.0	28.8	94.7	88.3	88.4	90.0	97.0	good efficacy	sensitize glyphosate-resistant Waterhemp plants to glyphosate	69
